Laboratory results taken from patent US9228015B2, “Nogo receptor antagonists and methods of increasing neurite outgrowth” (Biogen Idec MA Inc., priority 2006, dated 2016).

How the values were obtained:
[1] = test system: DRG neurons, myelin-mediated inhibition of neurite outgrowth; test: Neurite outgrowth assay, P3-4 rat DRG neurons on CNS myelin (Example 5); type: cell-based; conditions: mAb added after plating
Procedure: To test the ability of the monoclonal and Fab-phage antibodies produced above to lessen the inhibitory effect of CNS myelin on neurons, Lab-Tek® culture slides (4 wells) were coated with 0.1 mg/ml poly-D-lysine (Sigma®). CNS myelin or PBS was spotted as 3 μl drops. Fluorescent microspheres (Polysciences) were added to the myelin/PBS to allow later identification of the drops (Grandpre et al., Nature 403:439-444 (2000)). Lab-Tek® slides were then rinsed and coated with 10 μg/ml laminin (Gibco™). Dorsal root ganglions (DRG's) from P3-4 Sprague Dawley rat pups were dissociated with 1 mg/ml collagenase type 1 (Worthington), triturated with fire-polished Pasteur pipettes pre-plated to enrich in neuronal cells and finally plated at 23,000 cells/well on the pre-coated Lab-Tek® culture slides. The culture medium was F12 containing 5% heat inactivated donor horse serum, 5% heat inactivated fetal bovine serum and 50 ng/ml mNGF and incubated at 37° C. and 5% CO2 for 6 hours. Fifteen […] of mAb 7E11 was added immediately after plating.
Slides were fixed for 20 minutes with 4% paraformaldehyde containing 20% sucrose and stained for the neuronal marker anti beta-III-tubulin (Covance TUJ1) diluted 1:500. […] 5× digital images were acquired with OpenLab™ software and analysed by using the MetaMorph® software for quantification of neurite outgrowth.

[2] = biological target: T1, Nogo66 + sNogoR344-Fc (Rattus norvegicus, UniProt Q99M75, A303T/C287S/C43R/E284G/T53A); test: ELISA: inhibition of Nogo66 binding to sNogoR344-Fc
T1 construct: amino acid residues 26-344 of rat Nogo receptor-1; made in house
T1 sequence (Q99M75 26-344 C43R/T53A/E284G/C287S/A303T): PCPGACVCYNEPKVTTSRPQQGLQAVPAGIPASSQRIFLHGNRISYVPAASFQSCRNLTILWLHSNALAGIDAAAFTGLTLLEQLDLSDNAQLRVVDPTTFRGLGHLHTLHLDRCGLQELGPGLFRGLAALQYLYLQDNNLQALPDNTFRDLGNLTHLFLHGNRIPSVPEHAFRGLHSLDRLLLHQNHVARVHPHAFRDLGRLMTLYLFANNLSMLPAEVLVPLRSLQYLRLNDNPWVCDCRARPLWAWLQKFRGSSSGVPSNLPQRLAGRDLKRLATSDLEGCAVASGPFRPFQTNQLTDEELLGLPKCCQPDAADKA
Procedure: (§1) 0.5 μg of a soluble Nogo receptor-1 fusion protein comprising amino acid residues 26-344 of rat Nogo receptor-1 and the hinge and Fc region of the rat IgG1 molecule (sNogoR344-Fc) produced as described below was immobilized on […] of protein-A- or wheatgerm agglutinin-conjugated SPA beads (Amersham Pharmacia Biotech) for 2 hours at 25° C. SPA beads coupled with Fc-sNogoR-1, anti-Nogo receptor-1 mAb and 1 μl ^125I-Nogo66 (Amersham, 2000 Ci/mmol, 1 nM) in […] of the HEPES-buffered incubation medium (10 mM HEPES, pH 7.4, 0.1% bovine serum albumin, 0.1% ovalbumin, 2 mM MgCl2, 2 mM CaCl2 and protease inhibitors) was added to each sample well. After 16 hours, radioactivity was measured in quadruplicate samples using a TopCount® (Packard). IC50 values were calculated from a curve-fit analysis (FIG. 3) (PRISM, GraphPad Software, NJ). In some experiments, we also used AP-ligand conjugates (e.g. AP-Nogo66) and detected binding by monitoring alkaline phosphatase activity. We also assayed the ability of the mAbs to block binding of the ligands MAG-Fc and AP-OM-gp to Nogo receptor-1.
(§2) Monoclonal antibodies 7E11, 5B10, 1H2, 3G5 and 2F7 all inhibited binding of Nogo66, MAG and OM-gp to sNogoR344-Fc. The calculated IC50 for Nogo66 for 7E11 and 1H2 were 400 nM and 60 nM, respectively. The data from ELISAs monitoring mAb-mediated inhibition of binding of the three ligands to Nogo receptor-1 are summarized in Table 6.
(§3) The percent displacement is shown at 30 nM antibody and the EC50 for certain mAbs determined from curve-fit analysis as described. “-” indicates no detectable activity and “ND” indicates not determined.
(§4) We also performed ELISA binding assays using the Fab-phage 141)5.

[3] = biological target: T2, MAG + sNogoR344-Fc (Rattus norvegicus, UniProt Q99M75, A303T/C287S/C43R/E284G/T53A); test: ELISA: inhibition of MAG binding to sNogoR344-Fc
T2 construct: amino acid residues 26-344 of rat Nogo receptor-1; made in house; CHO (DG44) is described only for sNogoR310-Fc
T2 sequence (Q99M75 26-344 C43R/T53A/E284G/C287S/A303T): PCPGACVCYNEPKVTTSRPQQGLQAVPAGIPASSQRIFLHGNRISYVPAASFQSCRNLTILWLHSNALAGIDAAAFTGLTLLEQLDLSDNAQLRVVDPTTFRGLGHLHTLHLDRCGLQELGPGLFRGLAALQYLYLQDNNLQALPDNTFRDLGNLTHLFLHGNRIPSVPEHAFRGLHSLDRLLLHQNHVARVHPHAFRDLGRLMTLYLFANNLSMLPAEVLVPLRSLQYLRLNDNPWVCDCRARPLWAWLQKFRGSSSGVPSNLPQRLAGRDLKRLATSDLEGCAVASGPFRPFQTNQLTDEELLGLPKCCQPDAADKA
Procedure: as §1, §2, §3, §4

[4] = biological target: T3, mouse NgR1 (Mus musculus, UniProt Q99PI8); test: Antibody binding specificity: mouse Nogo receptor-1
T3 sequence (Q99PI8 27-447): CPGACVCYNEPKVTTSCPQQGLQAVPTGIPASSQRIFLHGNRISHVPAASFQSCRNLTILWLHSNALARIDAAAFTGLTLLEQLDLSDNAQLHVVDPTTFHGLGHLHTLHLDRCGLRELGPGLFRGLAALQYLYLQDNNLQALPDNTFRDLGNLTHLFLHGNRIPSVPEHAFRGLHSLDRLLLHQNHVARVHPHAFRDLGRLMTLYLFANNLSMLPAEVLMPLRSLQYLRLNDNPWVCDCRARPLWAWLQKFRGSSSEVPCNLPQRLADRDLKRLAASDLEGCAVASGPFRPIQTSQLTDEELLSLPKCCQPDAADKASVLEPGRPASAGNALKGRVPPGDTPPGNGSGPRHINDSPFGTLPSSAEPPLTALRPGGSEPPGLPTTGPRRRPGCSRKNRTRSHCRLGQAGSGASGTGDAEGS

[5] = biological target: T4, mouse NgR3 (Mus musculus, UniProt Q8K0S5); test: Antibody binding specificity: mouse Nogo receptor-3
T4 sequence (Q8K0S5 25-424): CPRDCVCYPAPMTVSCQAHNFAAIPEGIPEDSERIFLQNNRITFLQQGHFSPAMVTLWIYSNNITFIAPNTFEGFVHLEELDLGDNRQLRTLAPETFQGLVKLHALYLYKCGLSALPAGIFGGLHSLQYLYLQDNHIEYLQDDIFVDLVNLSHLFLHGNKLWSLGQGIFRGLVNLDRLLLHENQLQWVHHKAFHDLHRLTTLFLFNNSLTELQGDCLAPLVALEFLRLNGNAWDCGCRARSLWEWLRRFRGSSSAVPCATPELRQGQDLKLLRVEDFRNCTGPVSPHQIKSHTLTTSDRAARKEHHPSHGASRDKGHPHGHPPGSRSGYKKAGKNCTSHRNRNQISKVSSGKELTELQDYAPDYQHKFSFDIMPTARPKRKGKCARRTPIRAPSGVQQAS

inhibition of binding of Nogo66 to sNogoR344-Fc [2]: inhibited
EC50 ([2]; curve-fit analysis): 1700 nM
inhibition of binding of MAG to sNogoR344-Fc [3]: inhibited
MAG + sNogoR344-Fc: percent displacement ([3]; 30 nM antibody): 30 nM (60%)
EC50 ([3]; curve-fit analysis): 500 nM
binding to mouse Nogo receptor-1 [4]: not and poorly
binding to mouse Nogo receptor-3 [5]: not
B1: 7E11: murine monoclonal anti-Nogo receptor-1 antibody, immunogen rat Nogo receptor-1 residues 110-125, IgG1 kappa, ATCC PTA-4587 (antibody, V domains shown)
VH: VQLQESGAELVMPGASVKMSCKASGYTFTDYWMHWVKQRPGQGLEWIGAIDPSDSYSSYNQNFKGKATLTVDGSSSTAYMQLSSLTSEDSAVYYCARRITEAGAWFAYWGQGTTVT
VL: MKLPVRLLVLMFWIPASSSDVVMTQTPLSLPVSLGDQASISCRSSQSLVHSNGNTYLHWYLQKPGQSPKLLIYKVSNRFSGVPDRFSGSGSGTDFTLKISRVDAEDLGVYFCSQSTHVPFTFGGGTKLEIKRADAAPTVSISHH
modifications: 7E11 heavy chain; 7E11 light chain
notes: murine monoclonal anti-Nogo receptor-1 antibody, immunogen rat Nogo receptor-1 residues 110-125, IgG1 kappa, ATCC PTA-4587
protection of DRG neurons from myelin-mediated inhibition of neurite outgrowth [1]: protected
